Assay results as given in the supplement of paper PMC10724198.
± gives the standard deviation of the averaged measurements.

System: Saccharomyces cerevisiae
Experiment: protein stability index of tFT-peptide fusion (C-terminal peptide) (PSI (0-1 scale)); higher = more stable (slower turnover)
Conditions: genetic background: wild type; temperature: 30 C
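Also: PSI is a weighted mean of sequencing reads over stability bins, variants kept only with over 10 reads, mCherry proximal and sfGFP distal, peptide attached via GGGS linker.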

## KHPMRLPHTRRA
  protein stability index: 0.706 ± 0.045

## FNTRDTFLYTCR
  protein stability index: 0.789 ± 0.11

## GEWIDVSGCRRG
  protein stability index: 0.805 ± 0.28

## LGGGGLRSRGAG
  protein stability index: 0.785 ± 0.21

## WGGGRGTAVVGV
  protein stability index: 0.657 ± 0.028

## PPPSRTPPLNPR
  protein stability index: 0.741 ± 0.096

## LPCPRPVPPSPA
  protein stability index: 0.626 ± 0.018

## PAYACLCGFGIA
  protein stability index: 0.62754 ± 0.00056

## CGRSGALGPWGG
  protein stability index: 0.673 ± 0.0053

## AGGAEAVRRAGG
  protein stability index: 0.675 ± 0.019

## TPSYSPPSRHDP
  protein stability index: 0.634 ± 0.093

## EHMEYKSMVSCA
  protein stability index: 0.51 ± 0.059

## REKEIIIIKKEK
  protein stability index: 0.683 ± 0.037

## RVSEPRRPPLGR
  protein stability index: 0.65 ± 0.024

## PPPPPDAPRSSL
  protein stability index: 0.7043 ± 0.0066

## RPPPLLPARLSL
  protein stability index: 0.727 ± 0.028

## GFSDCGLYRVSC
  protein stability index: 0.713 ± 0.0097

## PLPIPSPLRSSF
  protein stability index: 0.689 ± 0.053

## AFWLPAAVPLIF
  protein stability index: 0.584 ± 0.022

## DGLGLLVGAGVG
  protein stability index: 0.623 ± 0.085

## VVELRGEKLVGR
  protein stability index: 0.6784 ± 0.005

## GRRRARPISRGT
  protein stability index: 0.681 ± 0.047

## VWIGMSLSSLVM
  protein stability index: 0.512 ± 0.011

## PPPPFWPLSPAL
  protein stability index: 0.713 ± 0.039

## IVLGPHNFLTIL
  protein stability index: 0.676 ± 0.018

## MKPPIGGNKPGL
  protein stability index: 0.726 ± 0.017

## RIKKKKNKARDI
  protein stability index: 0.734 ± 0.035

## VSTRSTVVVSSL
  protein stability index: 0.662 ± 0.02

## ALLKGASCRTAS
  protein stability index: 0.696 ± 0.03

## KTKKTKRRHKAE
  protein stability index: 0.662 ± 0.022

## QVRCCQEYSSEE
  protein stability index: 0.69 ± 0.026

## GLAELLLTKPTV
  protein stability index: 0.652 ± 0.021

## SDPLRLPNTCQH
  protein stability index: 0.669 ± 0.009

## GVIQARRSASSS
  protein stability index: 0.689 ± 0.043

## PPFASSPPFIFL
  protein stability index: 0.705 ± 0.062

## CVAACSGHAAVG
  protein stability index: 0.692 ± 0.017

## PPPPPLPTPPPS
  protein stability index: 0.653 ± 0.036

## CFFLVLPPFPLF
  protein stability index: 0.518 ± 0.028

## SRPPSPPLCHPA
  protein stability index: 0.736 ± 0.054

## GRGGARARRRVL
  protein stability index: 0.687 ± 0.071

## PAPLPFPPPSLP
  protein stability index: 0.701 ± 0.032

## KKKKKKNKKTKN
  protein stability index: 0.711 ± 0.045

## PDLEMQMTRTRG
  protein stability index: 0.70081 ± 0.00044

## SLAVAPHIATQQ
  protein stability index: 0.701 ± 0.011

## VFLRGSVLGLCI
  protein stability index: 0.606 ± 0.034

## AGSALSSAYTLM
  protein stability index: 0.703 ± 0.13

## CTQCCSGARLFM
  protein stability index: 0.672 ± 0.081

## PVLHSPHSLPPR
  protein stability index: 0.734 ± 0.11

## NRRERQQREVYN
  protein stability index: 0.741 ± 0.21

## PPPLLSPLSPPP
  protein stability index: 0.571

## LPPPHPPFPPRF
  protein stability index: 0.715 ± 0.059

## RIGRHLATSRRV
  protein stability index: 0.679 ± 0.0089

## QSILGLVERVIK
  protein stability index: 0.643 ± 0.032

## VPFDFFVYFFEF
  protein stability index: 0.5861 ± 0.0018

## EYKIKSIERRKK
  protein stability index: 0.73 ± 0.04

## WYSSSRDLSVSG
  protein stability index: 0.731 ± 0.0076

## SMCAFRPFPFSS
  protein stability index: 0.70891 ± 0.00011

## MTSCAVDHPERR
  protein stability index: 0.703 ± 0.0047

## VGVGWWVGLWGL
  protein stability index: 0.693 ± 0.011

## SMCSVAGVWWLG
  protein stability index: 0.728 ± 0.062

## PPACSPSPPRSS
  protein stability index: 0.723 ± 0.028

## GRGICFGLPFLR
  protein stability index: 0.683 ± 0.039

## AQRKSVLSPDLC
  protein stability index: 0.67 ± 0.035

## ATLSSVSSGSSF
  protein stability index: 0.647 ± 0.12

## AVCSLTLGFGWW
  protein stability index: 0.755 ± 0.034

## PPPPPLSPPSLV
  protein stability index: 0.725 ± 0.02

## SVSGTPLRALLH
  protein stability index: 0.622 ± 0.01

## GSWIKFVCRRAG
  protein stability index: 0.731 ± 0.0095

## PVPLRPLSPPPP
  protein stability index: 0.68 ± 0.0099

## MWVRKPNGNGSF
  protein stability index: 0.6877 ± 0.0055

## ASTLFDCHVLGA
  protein stability index: 0.697 ± 0.039

## SLPSWPPAPLPG
  protein stability index: 0.703 ± 0.025

## ERSWQEKGVVRG
  protein stability index: 0.699 ± 0.06

## PPFLTTYPHLAP
  protein stability index: 0.71 ± 0.031

## RVDTRKQNKNSM
  protein stability index: 0.693 ± 0.019

## APSSPRSSTPRP
  protein stability index: 0.763 ± 0.085

## PRPPLPLFPSSL
  protein stability index: 0.723 ± 0.048

## SGVEGTRQGSVS
  protein stability index: 0.711 ± 0.068

## RWKLRLFLLVPT
  protein stability index: 0.602 ± 0.044

## FRRLVTGVLSIF
  protein stability index: 0.559 ± 0.028

## PESTPRVHSNDY
  protein stability index: 0.691 ± 0.027

## PSPPFLPPPVPL
  protein stability index: 0.685 ± 0.056

## PPMALPELPLFP
  protein stability index: 0.738 ± 0.071

## GVAWGCVSRVFG
  protein stability index: 0.68 ± 0.045

## TQTLPPPLPPLL
  protein stability index: 0.675 ± 0.02

## GLYSRPVNSNSF
  protein stability index: 0.762 ± 0.022

## PFSPHPGPPPPP
  protein stability index: 0.7659 ± 0.002

## EGDGLGGGGQGG
  protein stability index: 0.685 ± 0.0069

## NPQTVNSPIFPT
  protein stability index: 0.752 ± 0.018

## VFPWRDSNLYAS
  protein stability index: 0.713 ± 0.021

## RRWWDHGCSGAG
  protein stability index: 0.672 ± 0.061

## LPYSAPPISLTN
  protein stability index: 0.702 ± 0.011

## VLMGGCGSWMAV
  protein stability index: 0.6771 ± 0.0044

## LGLSCTIFPIGI
  protein stability index: 0.679 ± 0.018

## VGRPGGVAQHRG
  protein stability index: 0.734 ± 0.077

## LSFSSLYFPSLC
  protein stability index: 0.651 ± 0.081

## FYRTRQSASPNV
  protein stability index: 0.688 ± 0.046

## SCPPVLFFPFPW
  protein stability index: 0.705 ± 0.051

## YIGLPVSALTIF
  protein stability index: 0.574 ± 0.1

## CWSCLRGYRFQT
  protein stability index: 0.664 ± 0.028

## VCAVRVGGGGEG
  protein stability index: 0.601 ± 0.04

## FPPPPTHPASSP
  protein stability index: 0.691 ± 0.027

## AGRGRAIGAGFS
  protein stability index: 0.649 ± 0.054

## FRWLLVAGGWGE
  protein stability index: 0.486 ± 0.024

## PRPPANILPSAP
  protein stability index: 0.713 ± 0.07

## PHPWTSPPAPPP
  protein stability index: 0.698 ± 0.022

## ALQLLNPSLLKY
  protein stability index: 0.786 ± 0.06

## PGATSAIPPPFT
  protein stability index: 0.738 ± 0.03

## STIIKLCDCYKM
  protein stability index: 0.7 ± 0.11

## VLFPSPSPPLSS
  protein stability index: 0.7 ± 0.0071

## PHAPHPPALTPP
  protein stability index: 0.623 ± 0.072

## KKKKQNKRKRKT
  protein stability index: 0.635 ± 0.0086

## KKSQKSKNKTHN
  protein stability index: 0.571 ± 0.0066

## SCGWWWGGGAGG
  protein stability index: 0.656 ± 0.041

## SLPPTLPPRSCP
  protein stability index: 0.6211 ± 0.0019

## WCLVTRGGDRDL
  protein stability index: 0.6727 ± 0.0047

## LLRSEETTIEPF
  protein stability index: 0.7531 ± 0.004

## HISRTLVDADIG
  protein stability index: 0.66928 ± 8e-05

## KWSETGQDGIER
  protein stability index: 0.701 ± 0.081

## WALLAAGGGGRG
  protein stability index: 0.651 ± 0.074

## GRGRCRGGVAVE
  protein stability index: 0.751 ± 0.23

## FLCPGELSYFCV
  protein stability index: 0.666 ± 0.03

## PTLSPPSPPPPA
  protein stability index: 0.665 ± 0.035

## RCSPPVFDTGES
  protein stability index: 0.652 ± 0.017

## LWWASRLRVPTP
  protein stability index: 0.674 ± 0.093

## VGSVVRGLVGPY
  protein stability index: 0.717 ± 0.19

## VGSCGAPRLPWP
  protein stability index: 0.732 ± 0.038

## GAFFPGPVLFLT
  protein stability index: 0.517 ± 0.013

## IYSTRWRRGRVE
  protein stability index: 0.699 ± 0.044

## ACVRVVRLGCGW
  protein stability index: 0.616 ± 0.063

## PPTPPPPLPSSF
  protein stability index: 0.77 ± 0.075

## KRGSREQQRYWK
  protein stability index: 0.659 ± 0.027

## HPGPAPPPPRGP
  protein stability index: 0.66 ± 0.019

## LSPLLSLPRCPT
  protein stability index: 0.7 ± 0.04

## PFPLPPLHSSHR
  protein stability index: 0.734 ± 0.03

## RCTPPPPTPPAT
  protein stability index: 0.6832 ± 0.0027

## LFSVLLFFFFHL
  protein stability index: 0.522 ± 0.069

## LLPHCRPGSTAA
  protein stability index: 0.692 ± 0.019

## VRWCLPPLFTPL
  protein stability index: 0.693 ± 0.059

## KKLSTYSVIEKS
  protein stability index: 0.601 ± 0.042

## PLGPSTQHPLSI
  protein stability index: 0.687 ± 0.025

## WLFDRLPFNAEN
  protein stability index: 0.715 ± 0.046

## LSCALCLLGFRC
  protein stability index: 0.647 ± 0.029

## PPPVLPPPPVSP
  protein stability index: 0.719 ± 0.03

## FPFFLPMASLFC
  protein stability index: 0.559 ± 0.018

## LPLYSFSVDFSF
  protein stability index: 0.576 ± 0.0059
